# Measured values from patent publication US20210113649A1 (UNIVERSITY OF FLORIDA RESEARCH FOUNDATION, published 2021).
# B1: SREBP2 mature form, endogenous (other, human, UniProt Q12772 1-484, looked up)
# chain: MDDSGELGGLETMETLTELGDELTLGDIDEMLQFVSNQVGEFPDLFSEQLCSSFPGSGGSGSSSGSSGSSSSSSNGRGSSSGAVDPSVQRSFTQVTLPSFSPSAASPQAPTLQVKVSPTSVPTTPRATPILQPRPQPQPQPQTQLQQQTVMITPTFSTTPQTRIIQQPLIYQNAATSFQVLQPQVQSLVTSSQVQPVTIQQQVQTVQAQRVLTQTANGTLQTLAPATVQTVAAPQVQQVPVLVQPQIIKTDSLVLTTLKTDGSPVMAAVQNPALTALTTPIQTAALQVPTLVGSSGTILTTMPVMMGQEKVPIKQVPGGVKQLEPPKEGERRTTHNIIEKRYRSSINDKIIELKDLVMGTDAKMHKSGVLRKAIDYIKYLQQVNHKLRQENMVLKLANQKNKLLKGIDLGSLVDNEVDLKIEDFNQNVLLMSPPASDSGSQAGFSPYSIDSEPGSPLLDDAKVKDEPDSPPVALGMVDRSRILL
# notes: domain: mature form (N-terminal domain released by cleavage); also called mature SREBP2
# B2: FLAG-SREBP2 (mature) (other, UniProt Q12772 1-481, looked up)
# chain: MDDSGELGGLETMETLTELGDELTLGDIDEMLQFVSNQVGEFPDLFSEQLCSSFPGSGGSGSSSGSSGSSSSSSNGRGSSSGAVDPSVQRSFTQVTLPSFSPSAASPQAPTLQVKVSPTSVPTTPRATPILQPRPQPQPQPQTQLQQQTVMITPTFSTTPQTRIIQQPLIYQNAATSFQVLQPQVQSLVTSSQVQPVTIQQQVQTVQAQRVLTQTANGTLQTLAPATVQTVAAPQVQQVPVLVQPQIIKTDSLVLTTLKTDGSPVMAAVQNPALTALTTPIQTAALQVPTLVGSSGTILTTMPVMMGQEKVPIKQVPGGVKQLEPPKEGERRTTHNIIEKRYRSSINDKIIELKDLVMGTDAKMHKSGVLRKAIDYIKYLQQVNHKLRQENMVLKLANQKNKLLKGIDLGSLVDNEVDLKIEDFNQNVLLMSPPASDSGSQAGFSPYSIDSEPGSPLLDDAKVKDEPDSPPVALGMVDRSR
# notes: domain: mature form; also called mature SREBP2 (Plasmid #26807); not shown: FLAG tag
# Legend:
# [1] = molecular target: T1, DAXX (death domain-associated protein), endogenous (human, UniProt Q9UER7 1-740); test: IP of MDA-MB-231 or PC3 cell extracts with an anti-DAXX mAb, immunoblot for SREBP2 (M, mature)
# T1 construct: Endogenous protein pulled down with an anti-DAXX mAb or co-precipitated with FLAG-SREBP2; also called endogenous DAXX
# Source text: FIGS. 2A to 2E show DAXX binds to SREBP2. […] MDA-MB-231 or PC3 cell extracts were subjected to IP with a control (IgG) or an anti-DAXX monoclonal antibody. The immunoprecipitated SREBP2 was detected. P, precursor; M, mature SREBP2. FIGS. 2B, 2C, and 2D show there are two independent binding sites in DAXX for mature SREBP2. […] The cell lysates were subjected to FLAG IP. […] HC: IgG heavy chain. *: non-specific band. FIG. 2E is a schematic drawing of DAXX-SREBP2 interactions. The two independent SREBP2-binding sites are depicted. Also shown is the sequence of aa 327-335 within the DAXX HBD critical for the DAXX-SREBP2 interactions. SIM: SUMO-interacting motif; DHB: DAXX helical bundle; HBD: histone-binding domain; PEST: proline, glutamic acid, serine, and threonine-rich sequence. Numbers refer to aa residue positions in the DAXX protein. Note that the irrelevant lanes in the same blots (between the input and IP samples in the PC3 blot in panel A, between lanes 4 and 5, and lanes 12 and 13 in panel B, and between lanes 1 and 2 in panel D) are left out.
# Immunoprecipitation (IP) of total cell extracts with anti-DAXX antibody evidenced co-precipitation of two SREBP2 proteins (FIG. 2A) that correspond to the precursor (P) and the mature (M) forms of SREBP2. […]
# GFP-DAXX S690A = molecular target: T2, GFP-DAXX S690A (human, UniProt Q9UER7 1-740); test: anti-FLAG IP of 293T cells cotransfected with GFP-DAXX constructs and FLAG-SREBP2 (FIG. 6A)
# T2 construct: also called S690A mutant; not shown: GFP from the pEGFP-C2 vector
# Source text: (§1) FIGS. 6A to 6H show mutation of DAXX phosphorylation sites disrupts DAXX-SREBP2 interaction, impairs lipogenesis and tumor growth. […] The GFP-wt DAXX was transfected alone in the absence of FLAG-SREBP2 as a control (lane 7). The lysates of transfected cells were subjected to IP with an anti-FLAG antibody, Both DAXX and FLAG-SREBP2 were detected in immunoprecipitates and input lysates. […] The precipitated DNAs were subjected to qPCR with primers specific to promoter regions of the indicated genes. qPCRs for the 3′ UTR of the FASN and ACACA genes serve as negative control. […] ATRX qRT-PCR serves as a control for genes not regulated by SREBPs. […] Cells were serum-starved for 24 h. DMSO or a mTOR inhibitor (0.1 μM final concentration) was added for 5 h before cell lysis. […] RNAs were isolated from cells cultured in serum-free DMEM for 24 h as in FIG. 6D.
# GFP-DAXX S495A = molecular target: T3, GFP-DAXX S495A (human, UniProt Q9UER7 1-740); test: as above
# T3 construct: also called S495A mutant; not shown: GFP from the pEGFP-C2 vector
# Source text: as §1
# GFP-DAXX S671A = molecular target: T4, GFP-DAXX S671A (human, UniProt Q9UER7 1-740); test: as above
# T4 construct: also called S671A mutant; not shown: GFP from the pEGFP-C2 vector
# Source text: as §1
# GFP-DAXX S668A/S671A = molecular target: T5, GFP-DAXX S668A/S671A (human, UniProt Q9UER7 1-740); test: as above
# T5 construct: also called S668A/S671A mutant; not shown: GFP from the pEGFP-C2 vector
# Source text: as §1
# T2 sequence (Q9UER7 whole entry S690A): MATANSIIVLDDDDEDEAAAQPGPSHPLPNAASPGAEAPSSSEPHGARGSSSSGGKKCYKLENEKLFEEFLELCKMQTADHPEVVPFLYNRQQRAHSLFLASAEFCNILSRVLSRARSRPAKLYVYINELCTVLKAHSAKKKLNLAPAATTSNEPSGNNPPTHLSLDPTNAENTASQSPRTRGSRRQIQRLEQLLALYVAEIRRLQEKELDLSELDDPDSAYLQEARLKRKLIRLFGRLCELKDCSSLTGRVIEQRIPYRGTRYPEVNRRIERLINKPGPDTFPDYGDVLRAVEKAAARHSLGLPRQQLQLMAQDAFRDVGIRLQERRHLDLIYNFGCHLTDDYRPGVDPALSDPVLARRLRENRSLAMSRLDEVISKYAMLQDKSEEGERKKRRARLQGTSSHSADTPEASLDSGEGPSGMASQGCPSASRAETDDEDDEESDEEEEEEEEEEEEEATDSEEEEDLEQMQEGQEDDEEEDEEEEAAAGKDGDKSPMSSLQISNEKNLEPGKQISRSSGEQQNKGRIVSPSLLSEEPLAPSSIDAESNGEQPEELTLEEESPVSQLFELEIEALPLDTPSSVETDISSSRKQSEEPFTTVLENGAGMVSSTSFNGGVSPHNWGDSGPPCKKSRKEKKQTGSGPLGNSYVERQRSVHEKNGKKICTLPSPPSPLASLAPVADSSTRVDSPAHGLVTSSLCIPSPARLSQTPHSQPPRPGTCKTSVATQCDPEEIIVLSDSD
# T3 sequence (Q9UER7 whole entry S495A): as the sequence (Q9UER7 whole entry S690A) above, with S495A, A690S counted along it
# T1 sequence (Q9UER7 whole entry, the tested form may be a part): as the sequence (Q9UER7 whole entry S690A) above, with A690S counted along it
# T5 sequence (Q9UER7 whole entry S668A/S671A): as the sequence (Q9UER7 whole entry S690A) above, with S668A, S671A, A690S counted along it
# T4 sequence (Q9UER7 whole entry S671A): as the sequence (Q9UER7 whole entry S690A) above, with S671A, A690S counted along it
Binder,binding result [1],binding result (GFP-DAXX S690A),binding result (GFP-DAXX S495A),binding result (GFP-DAXX S671A),binding result (GFP-DAXX S668A/S671A)
B1,binds,–,–,–,–
B2,–,no binding,no binding,no binding,no binding
